This is an account of results in paper PMC12822431, “A Pan‐TE Map Reveals the Important Role of Transposable Elements in Gene Expression and Phenotypic Diversity in 2,311 Rapeseed Accessions”.

The target of the data set is T1, BnaA01G0374400ZS (MYB TF, ortholog of AT3G11280) (Brassica napus (ZS11), UniProt A0A078HEX6 1-259).
T1 sequence: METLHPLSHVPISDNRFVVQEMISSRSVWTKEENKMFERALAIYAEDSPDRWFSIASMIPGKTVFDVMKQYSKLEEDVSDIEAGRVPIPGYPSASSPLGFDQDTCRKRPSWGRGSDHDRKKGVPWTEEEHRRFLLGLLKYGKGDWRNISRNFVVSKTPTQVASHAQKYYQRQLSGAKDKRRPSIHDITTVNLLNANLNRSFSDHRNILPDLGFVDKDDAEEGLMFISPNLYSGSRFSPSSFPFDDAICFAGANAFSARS
The experiment in a line: EMSA; Beyotime GS009 EMSA kit, room temperature, 20 min, 5% native polyacrylamide gel, chemiluminescent detection; buffer, salt and pH not stated. Conditions: protein: recombinant; tags: His; label: biotin; blunt. In general terms: A gel shift assay detects complexes by their altered migration in electrophoresis.

B1: M2 (M1 with all C nucleotides mutated) (dsDNA)
DNA 1: TTTTTTTATTTATATTAAATTTATT
DNA 2: AATAAATTTAATATAAATAAAAAAA
For B1, the binding result is given as “no binding”.
